In US20260069656A1, “Nutritive Polypeptides and Formulations Thereof, and Methods of Production and Use Thereof” (Axcella Health Inc., priority 2013, published 2026):
Where two headings read alike, the source gives them in different places.

What was measured:
[1] = Pancreatin-based in vitro digestion, free amino acids by RP-HPLC
Description: In this method, pancreatin, a mixture of enzymes, is used to simulate intestinal proteases. Specifically, the digestion of polypeptides into amino acids was analyzed by an in vitro Pancreatin-based digestion assay followed by free amino acid analysis using reversed phase HPLC (RP-HPLC). The nutritive polypeptide was added to SGF (0.92 g/L Pepsin (Sigma), 0.03 M NaCl titrated with HCl to pH 1.5) at a final concentration of 4 g/L and incubated at 37° C. for 120 min. After 120 min, Na2CO3 was added to a final concentration of 16 mM to quench the pepsin reaction. […] Time points were sampled from the reaction and quenched by heating to 95° C. for 5 min. Control samples were protease-free.
Analyses were performed using an Agilent 1100 series system. Primary amino acids were derivitized pre-column at room temperature, online, using o-phthalaldehyde (OPA). The OPA-derivatives were separated using the Zorbax Eclipse-AAA 4.6×150 mm, 3.5 μm column at 40° C. The separation gradient transitioned from 100% 40 mM Na2HPO4 pH 7.8 to 65% acetonitrile/methanol/water mixture (45/45/10) over 23 minutes. Analytes were detected by fluorescence at 340 nm Ex/450 nm Em.

[2] = Rat pharmacokinetic studies, plasma amino acids by HPLC; settings: oral administration to rats, doses of Table E33A
Description: (§1) Rat pharmacokinetic studies. Male Sprague Dawley rats with indwelling jugular vein cannula (JVC) were purchased from Harlan Laboratories and acclimated to the Test Facility (Agilux Laboratories) for at least two days prior to study initiation. Prior to dose administration animals were fasted overnight (11-13 h) and remained fasted until completion of the study. Test articles were orally administered via a bulb-tipped 18 gauge stainless steel gavage needle attached to a syringe. The weight of all dose syringes were recorded prior to and following dosing to more accurately determine the amount of solution dosed. Serial blood samples (˜300 μL) were collected from the JVC at time 0 (pre-dose) and 0.25, 0.5, 1, 2, and 4 h post-dose. Blood samples were collected into tubes containing the anti-coagulant K2EDTA, a general protease inhibitor cocktail (Sigma P8340, diluted 1:100 in whole blood), and a DPP IV inhibitor (Millipore DPP4, diluted 1:100 in whole blood). Immediately following blood collection tubes were vortexed and stored on wet ice until processing to plasma by centrifugation (3,500 rpm at 5° C.) within 1 h of collection. Plasma samples were then transferred into new tubes and stored at −80° C.
(§2) The concentration of Glu, Ser, His, Gly, Thr, Arg, Ala, Tyr, Val, Met, Phe, Ile, Leu, and Lys in the plasma samples was determined by HPLC amino acid analysis, as described herein. Prior to HPLC amino acid analysis, insoluble particles were removed from plasma samples by centrifugation (1100×g at 4° C.) for 10 min. A 25 μL sample of the soluble fraction was then transferred to a 96-well plate, for some samples an internal standard (Norvaline, Agilent) was added to each plasma sample at final concentration of 0.5 mM.

[3] = Intact half-life during simulated gastric fluid (SGF) digestion
[4] = Solubility of proteins (lyophilized/reconstituted or ultrafiltered); settings: produced in E. coli unless otherwise noted
Description: Solubility. […] Protein samples were dried by lyophilization on a FreeZone Freeze Dry System (Labconco) using the manufacturer's standard protocol and then resuspended in buffer to the desired concentration. Centrifugal and tangential ultrafiltration were used to selectively remove buffer from the protein sample until the desired concentration was reached. Centrifugal ultrafiltration of protein solutions was performed by centrifugation (10,000×g) of 10 mg of protein in an Amicon centrifugal filter (Millipore) with a molecular weight cutoff of 3 kDa, 10 kDa, or 30 kDa, depending on the protein size, until the desired contrentration was reached. Ultrafiltration of protein solutions was performed on Hydrosart ultrafiltration cassettes (Sartorius Stedim, Bohemia, NY) with a molecular weight cutoff of 3 kDa, 10 kDa, or 30 kDa, depending on the protein size, at a cross flow rate of 12 L/m2/min. For most processes, transmembrane pressure was maintained at 20 psi and performed until the desired contrentration was reached.
The protein concentration of the above samples was measured by one or a combination of the following methods: Coomassie Plus Protein Assay, absorbance at 280 nm (A280), and total amino acid analysis. Coomassie Plus Protein Assays (Pierce) were performed according to the manufacturer's protocol. Absorbance at 280 nm was measured on a Nanodrop 2000 UV-Vis spectrophotometer. Protein concentration was determined using the A280 value and molar extinction coefficient, which was calculated by primary amino acid sequence using ProtParam (Gasteiger, Elisabeth, et al. The proteomics protocols handbook. Humana Press, 2005. 571-607.). Total amino acids were analyzed by HPLC after acid hydrolysis as described in Henderson, J. W., et al. Agilent Technologies (2010).

[5] = rat, in vivo, po
Description: as §1, §2

[6] = simulated gi fluid, pH 1.5
[7] = Oral pharmacokinetics in humans, plasma amino acid concentrations; parameters: species or system human; settings: in vivo
Description: The anabolic response to protein ingestion is predicated on the delivery of essential amino acids. The purpose of this study was to examine the changes in plasma amino acid concentrations in response to various proteins over a period of 240 minutes. […] Subjects were fasted overnight (>8 hrs) before oral pharmacokinetic study. […] Plasma amino acid concentrations were quantified by Quest Diagnostics or Laboratory Corporation of America. […] FIGS. 64-67 show the plasma time course of each measured amino acid and the aggregate groups, essential amino acids (EAA), branched chain amino acids (BCAA), and total amino acids (TAA), for WPI and SEQID-105. […] Subjects were fasted overnight (>8 hrs) before oral pharmacokinetic study. […] Plasma amino acid concentrations were quantified by Quest Diagnostics or Laboratory Corporation of America. The purpose of this study was to examine the changes in plasma amino acid concentrations in response to a methionine deficient nutritive protein over a period of 240 minutes. […] Plasma amino acid concentrations were quantified by Quest Diagnostics or Laboratory Corporation of America.

[8] = after 120 min SGF, Pancreatin SIF pH 6.5
[9] = SGF pH 1.5, pepsin:polypeptide 1:20 w/w, 37° C., produced in E. coli unless otherwise noted

B1: SEQID-00352: nutritive polypeptide naturally produced in Corn, recombinantly expressed in E. coli (protein)
chain: MATKRSVGTLGEADLKGKKVFVRADLNVPLDDAQKITDDTRIRASVPTIKFLLEKGAKVILASHLGRPKGVTPKYSLKPLVPRLSELLGVEVVMANDCIGEEVEKLAAALPEGGVLLLENVRFYKEEEKNEPEFAKKLASVADLYVNDAFGTAHRAHASTEGVTKYLKPAVAGFLMQKELDYLVGAVANPKKPFAAIVGGSKVSTKIGVIESLLAKVDILILGGGMIYTFYKAQGYSVGKSLVEEDKLELATSLIEKAKAKGVSLLLPTDIVVADKFAADAESKIVPATAIPDDWMGLDVGPDATKTFDEALDTTKTVIWNGPMGVFEFQKFAAGTEAIAKKLAELTTTKGVTTIIGGGDSVAAVEKAGLADKMSHISTGGGASLELLEGKTLPGVLALDDA
modifications: Zea mays
[1]; [8]
  Free Leu (μM) at 120 min time point of Pancreatin digest: 906.1 µM
[2]
  change in AUC0-4 h for plasma Lys: increased the change in AUC0-4 h for plasma Lys
[3]; [9]
  SGF Half-life (t½): 12 s
[4]
  Solubility: 223 mg/mL

B2: SEQID-00426: methionine deficient nutritive protein (protein, listed as Thermomyces lanuginosus)
chain: EVSQDLFNQFNLFAQYSAAAYCGKNNDAPAGTNITCTGNACPEVEKADATFLYSFEDSGVGDVTGFLALDNTNKLIVLSFRGSRSIENWIGNLNFDLKEINDICSGCRGHDGFTSSWRSVADTLRQKVEDAVREHPDYRVVFTGHSLGGALATVAGADLRGNGYDIDVFSYGAPRVGNRAFAEFLTVQTGGTLYRITHTNDIVPRLPPREFGYSHSSPEYWIKSGTLVPVTRNDIVKIEGIDATGGNNQPNIPDIPAHLWYFGLIGTCL
[5]
  change in AUC0-4 h for plasma Lys: did not alter the change in AUC0-4 h for plasma Lys
[6]
  SGF Half-life (t½): 18 s
[7]
  plasma EAA time course vs basal, Dunnett multiple comparison test: plasma EAA levels at the 30 and 60 min. time points are significantly different from the basal levels at time 0 min
  plasma Methionine over time: Methionine shows no significant change over time
  plasma amino acid levels across time, 1-way ANOVA: significant differences across time for Glu and EAA

B3: SEQID-00341: nutritive polypeptide (protein, listed as Saccharomyces cerevisiae)
chain: MSTSREDSVYLAKLAEQAERYEEMVENMKTVASSGQELSVEERNLLSVAYKNVIGARRASWRIVSSIEQKEESKEKSEHQVELICSYRSKIETELTKISDDILSVLDSHLIPSATTGESKVFYYKMKGDYHRYLAEFSSGDAREKATNASLEAYKTASEIATTELPPTHPIRLGLALNFSVFYYEIQNSPDKACHLAKQAFDDAIAELDTLSEESYKDSTLIMQLLRDNLTLWTSDMSESGQAEDQQQQQQHQQQQPPAAAEGEAPK
modifications: strain ATCC 204508 / S288c
[1]; [8]
  Free Leu (μM) at 120 min time point of Pancreatin digest: 1143.5 µM
[3]; [9]
  SGF Half-life (t½): 12 s
[4]
  Solubility: 166 mg/mL

B4: SEQID-00425: nutritive polypeptide (protein, listed as Kluyveromyces lactis)
chain: MSCLIPENLRNPKKVHENRLPTRAYYYDQDIFESLNGPWAFALFDAPLDAPDAKNLDWETAKKWSTISVPSHWELQEDWKYGKPIYTNVQYPIPIDIPNPPTVNPTGVYARTFELDSKSIESFEHRLRFEGVDNCYELYVNGQYVGFNKGSRNGAEFDIQKYVSEGENLVVVKVFKWSDSTYIEDQDQWWLSGIYRDVSLLKLPKKAHIEDVRVTTTFVDSQYQDAELSVKVDVQGSSYDHINFTLYEPEDGSKVYDASSLLNEENGNTTFSTKEFISFSTKKNEETAFKINVKAPEHWTAENPTLYKYQLDLIGSDGSVIQSIKHHVGFRQVELKDGNITVNGKDILFRGVNRHDHHPRFGRAVPLDFVVRDLILMKKFNINAVRNSHYPNHPKVYDLFDKLGFWVIDEADLETHGVQEPFNRHTNLEAEYPDTKNKLYDVNAHYLSDNPEYEVAYLDRASQLVLRDVNHPSIIIWSLGNEACYGRNHKAMYKLIKQLDPTRLVHYEGDLNALSADIFSFMYPTFEIMERWRKNHTDENGKFEKPLILCEYGHAMGNGPGSLKEYQELFYKEKFYQGGFIWEWANHGIEFEDVSTADGKLHKAYAYGGDFKEEVHDGVFIMDGLCNSEHNPTPGLVEYKKVIEPVHIKIAHGSVTITNKHDFITTDHLLFIDKDTGKTIDVPSLKPEESVTIPSDTTYVVAVLKDDAGVLKAGHEIAWGQAELPLKVPDFVTETAEKAAKINDGKRYVSVESSGLHFILDKLLGKIESLKVKGKEISSKFEGSSITFWRPPTNNDEPRDFKNWKKYNIDLMKQNIHGVSVEKGSNGSLAVVTVNSRISPVVFYYGFETVQKYTIFANKINLNTSMKLTGEYQPPDFPRVGYEFWLGDSYESFEWLGRGPGESYPDKKESQRFGLYDSKDVEEFVYDYPQENGNHTDTHFLNIKFEGAGKLSIFQKEKPFNFKISDEYGVDEAAHACDVKRYGRHYLRLDHAIHGVGSEACGPAVLDQYRLKAQDFNFEFDLAFE
[1]; [8]
  Free Leu (μM) at 120 min time point of Pancreatin digest: 713.1 µM
[3]; [9]
  SGF Half-life (t½): 18 s
[4]
  Solubility: 190 mg/mL

B5: SEQID-00429: nutritive polypeptide (protein, listed as Bacillus licheniformis)
chain: ANLKGTLMQYFEWYMPNDGQHWKRLQNDSAYLAEHGITAVWIPPAYKGTSQADVGYGAYDLYDLGEFHQKGTVRTKYGTKGELQSAIKSLHSRDINVYGDVVINHKGGADATEDVTAVEVDPADRNRVISGEHRIKAWTHFHFPGRGSTYSDFKWHWYHFDGTDWDESRKLNRIYKFQGKAWDWEVSNENGNYDYLMYADIDYDHPDVAAEIKRWGTWYANELQLDGFRLDAVKHIKFSFLRDWVNHVREKTGKEMFTVAEYWQNDLGALENYLNKTNFNHSVFDVPLHYQFHAASTQGGGYDMRKLLNGTVVSKHPLKAVTFVDNHDTQPGQSLESTVQTWFKPLAYAFILTRESGYPQVFYGDMYGTKGDSQREIPALKHKIEPILKARKQYAYGAQHDYFDHHDIVGWTREGDSSVANSGLAALITDGPGGAKRMYVGRQNAGETWHDITGNRSEPVVINSEGWGEFHVNGGSVSIYVQR
[1]; [8]
  Free Leu (μM) at 120 min time point of Pancreatin digest: 580.7 µM
[3]; [9]
  SGF Half-life (t½): 300 s
[4]
  Solubility: 214 mg/mL

B6: SEQID-00423: nutritive polypeptide (protein)
chain: VNGTLMQYFEWYTPNDGQHWKRLQNDAEHLSDIGITAVWIPPAYKGLSQSDNGYGPYDLYDLGEFQQKGTVRTKYGTKSELQDAIGSLHSRNVQVYGDVVLNHKAGADATEDVTAVEVNPANRNQETSEEYQIKAWTDFRFPGRGNTYSDFKWHWYHFDGADWDESRKISRIFKFRGEGKAWDWEVSSENGNYDYLMYADVDYDHPDVVAETKKWGIWYANELSLDGFRIDAAKHIKFSFLRDWVQAVRQATGKEMFTVAEYWQNNAGKLENYLNKTSFNQSVFDVPLHFNLQAASSQGGGYDMRRLLDGTVVSRHPEKAVTFVENHDTQPGQSLESTVQTWFKPLAYAFILTRESGYPQVFYGDMYGTKGTSPKEIPSLKDNIEPILKARKEYAYGPQHDYIDHPDVIGWTREGDSSAAKSGLAALITDGPGGSKRMYAGLKNAGETWYDITGNRSDTVKIGSDGWGEFHVNDGSVSIYVQK
modifications: Bacillus Amyloliquefaciens
[1]; [8]
  Free Leu (μM) at 120 min time point of Pancreatin digest: 587.1 µM
[4]
  Solubility: 193 mg/mL

B7: Heat-denatured SEQID-00363: SEQID-00363 diluted to 30 g/L in 10% PBS and rapidly heated to 95° C. (protein)
chain: ATLDSWLSNEATVARTAILNNIGADGAWVSGADSGIVVASPSTDNPDYFYTWTRDSGLVLKTLVDLFRNGDTSLLSTIENYISAQAIVQGISNPSGDLSSGAGLGEPKFNVDETAYTGSWGRPQRDGPALRATAMIGFGQWLLDNGYTSTATDIVWPLVRNDLSYVAQYWNQTGYDLWEEVNGSSFFTIAVQHRALVEGSAFATAVGSSCSWCDSQAPEILCYLQSFWTGSFILANFDSSRSGKDANTLLGSIHTFDPEAACDDSTFQPCSPRALANHKEVVDSFRSIYTLNDGLSDSEAVAVGRYPEDTYYNGNPWFLCTLAAAEQLYDALYQWDKQGSLEVTDVSLDFFKALYSDAATGTYSSSSSTYSSIVDAVKTFADGFVSIVETHAASNGSMSEQYDKSDGEQLSARDLTWSYAALLTANNRRNSVVPASWGETSASSVPGTCAATSAIGTYSSVTVTSWPSIVATGGTTTTATPTGSGSVTSTSKTTATASKTSTSTSSTSCTTPTAVAVTFDLTATTTYGENIYLVGSISQLGDWETSDGIALSADKYTSSDPLWYVTVTLPAGESFEYKFIRIESDDSVEWESDPNREYTVPQACGTSTATVTDTWR
modifications: heat-denatured; Aspergillus niger
[1]; native and modified SEQID-00363
  Free Leu (μM) at 120 min time point of Pancreatin digest: 763.5 µM
[3]; native and modified SEQID-00363, gel electrophoresis
  SGF Half-life (t½): 1220 s
